Consider two substances from paper PMC8861134.

Assay [1] concerns the target Glucose-6-phosphate dehydrogenase E347A, tetramer-impaired synthetic mutant (human) (UniProt P11413). In words: native gel or EMSA; partial native PAGE (P-Native PAGE): 850 nM protein in 50 mM Tris pH 7.4, 150 mM NaCl, 23 °C, 30 min; sample buffer without SDS and BME, not boiled, run on SDS-PAGE, Western blot, quantified with Fiji; step: dimer to monomers.
Assay [2] concerns the target Glucose-6-phosphate dehydrogenase K403Q (human) (UniProt P11413). In words: SEC; analytical SEC, Superdex 75 10/300 GL, 0.4 ml/min; 500 nM G6PD incubated 30 min at 23 °C in 80 mM sodium phosphate pH 8.0, with or without 10 μM NADP+; percentages in monomer equivalents; step: monomers to dimer.

Turning to “Glucose-6-phosphate dehydrogenase E347A, tetramer-impaired synthetic mutant (from UniProt P11413 1-515) (enzyme)”, in assay [1], the percent in monomeric form was 80%.

On to “Glucose-6-phosphate dehydrogenase K403Q (from UniProt P11413 1-515) (enzyme)”, for which the percent dimer in assay [2] stood at 74%.
